According to patent US20240059766A1:

Legend:
[1] = target: Tau204-222 phospho-peptide (pS214) (human); assay: one point ELISA
[2] = target: Tau204-222 phospho-peptide (pS214/pT217) (human); assay: one point ELISA
[3] = target: Tau204-222 phospho-peptide (pT212) (human); assay: one point ELISA
[4] = target: Tau204-222 phospho-peptide (pT212/pS214) (human); assay: one point ELISA
[5] = target: Tau204-222 phospho-peptide (pT212/pS214/pT217) (human); assay: one point ELISA
[6] = target: Tau204-222 phospho-peptide (pT212/pT217) (human); assay: one point ELISA
[7] = target: Tau204-222 phospho-peptide (pT217) (human); assay: one point ELISA
[8] = target: Peptide 5 (tPeptide 5) (pT212/pS214/pT217) (human); assay: one point ELISA
[9] = target: SCBio-4PEG-Peptide (Tau191-214) pS199-old (human); assay: one point ELISA
[10] = target: Tau191-214 phospho-peptide (pS199) (human); assay: one point ELISA
[11] = target: Tau191-214 phospho-peptide (pS199/pS202) (human); assay: one point ELISA
[12] = target: Tau191-214 phospho-peptide (pS199/pS202/pT205) (human); assay: one point ELISA
[13] = target: Tau191-214 phospho-peptide (pS199/pT205) (human); assay: one point ELISA
[14] = target: Tau191-214 phospho-peptide (pS202) (human); assay: one point ELISA
[15] = target: Tau191-214 phospho-peptide (pS202/pT205) (human); assay: one point ELISA
[16] = target: Tau191-214 phospho-peptide (pT205) (human); assay: one point ELISA
wtTau C2 (human) = assay: one point ELISA
[17] = target: Tau217-234 phospho-peptide (pT217/pT220/pT231) (human); assay: BLI
[18] = target: Tau225-240 phospho-peptide (pT231) (human); assay: BLI
[19] = target: AT8 peptide (amino acids 195-215 of tau) (human); assay: BLI (Octet), peptide on streptavidin tip
Sequence of AT8 peptide (amino acids 195-215 of tau) (human) (peptide, as listed by the source): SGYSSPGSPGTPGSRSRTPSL

Sequence of Tau191-214 phospho-peptide (pS202) (human) (peptide, as listed by the source): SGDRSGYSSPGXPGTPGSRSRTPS
Sequence of SCBio-4PEG-Peptide (Tau191-214) pS199-old (human) (peptide, as listed by the source): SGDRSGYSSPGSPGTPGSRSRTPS
Sequence of Tau191-214 phospho-peptide (pT205) (human) (peptide, as listed by the source): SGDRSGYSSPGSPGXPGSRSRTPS
Sequence of Tau191-214 phospho-peptide (pS199) (human) (peptide, as listed by the source): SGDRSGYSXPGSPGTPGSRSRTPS

An OD450 [1] of 0.065 OD450 nm, an OD450 [2] of 0.067 OD450 nm and an OD450 [3] of 0.069 OD450 nm were found for “anti-tau antibody AT100 (ThermoFisher, Waltham, MA)” in this work. It also gave an OD450 [4] of 0.071 OD450 nm, an OD450 [5] of 0.187 OD450 nm and an OD450 [6] of 0.069 OD450 nm. For the same substance, the OD450 [7] was 0.068 OD450 nm.

An OD450 [8] of 0.141 OD450 nm, an OD450 [9] of 0.06 OD450 nm and an OD450 [10] of 0.058 OD450 nm were found for hIgG1 isotype control (antibody) in this work. It also gave an OD450 [11] of 0.062 OD450 nm, an OD450 [12] of 0.245 OD450 nm and an OD450 [13] of 0.09 OD450 nm. For the same substance, the OD450 [14] was 0.055 OD450 nm, the OD450 [15] was 0.249 OD450 nm and the OD450 [16] was 0.054 OD450 nm. The OD450 [1] was 0.061 OD450 nm, the OD450 [2] was 0.059 OD450 nm and the OD450 [3] was 0.06 OD450 nm. For the same substance, the OD450 [4] was 0.059 OD450 nm, the OD450 [5] was 0.053 OD450 nm and the OD450 [6] was 0.057 OD450 nm. For the same substance, the OD450 [7] was 0.083 OD450 nm and the OD450 (wtTau C2 (human)) was 0.124 OD450 nm.

A Kd [17] of 5 pM and a Kd [18] of 6 pM were found for AT180 (antibody) in this work.

An OD450 [8] of 2.81 OD450 nm, an OD450 [1] of 3.14 OD450 nm and an OD450 [2] of 3.13 OD450 nm were found for PT3-hIgG1 (antibody) in this work. It also gave an OD450 [3] of 3.16 OD450 nm, an OD450 [4] of 3.14 OD450 nm and an OD450 [5] of 3.17 OD450 nm. The OD450 [6] was 3.16 OD450 nm, the OD450 [7] was 3.13 OD450 nm and the OD450 (wtTau C2 (human)) was 1.2 OD450 nm.

An OD450 [9] of 0.056 OD450 nm, an OD450 [10] of 0.056 OD450 nm and an OD450 [11] of 2.39 OD450 nm were found for “anti-tau antibody AT8 (ThermoFisher, Waltham, MA)” in this work. For the same substance, the OD450 [12] was 3.07 OD450 nm, the OD450 [13] was 0.139 OD450 nm and the OD450 [14] was 0.058 OD450 nm. It also gave an OD450 [15] of 2.94 OD450 nm, an OD450 [16] of 0.065 OD450 nm and a Kd [19] of 309 pM.
